# Columns and labels:
# [1] = molecular target: wild type (WT) talin R3 domain
# [2] = molecular target: talin R3-IVVI domain
# [3] = molecular target: talin R3-IVVI domain; remark: listed apart in the source
# [4] = molecular target: talin R3-IVVI domain; remark: listed apart in the source
# [5] = molecular target: talin R3-IVVI domain; remark: listed apart in the source
# DnaK, sequence (P0A6Y8 whole entry): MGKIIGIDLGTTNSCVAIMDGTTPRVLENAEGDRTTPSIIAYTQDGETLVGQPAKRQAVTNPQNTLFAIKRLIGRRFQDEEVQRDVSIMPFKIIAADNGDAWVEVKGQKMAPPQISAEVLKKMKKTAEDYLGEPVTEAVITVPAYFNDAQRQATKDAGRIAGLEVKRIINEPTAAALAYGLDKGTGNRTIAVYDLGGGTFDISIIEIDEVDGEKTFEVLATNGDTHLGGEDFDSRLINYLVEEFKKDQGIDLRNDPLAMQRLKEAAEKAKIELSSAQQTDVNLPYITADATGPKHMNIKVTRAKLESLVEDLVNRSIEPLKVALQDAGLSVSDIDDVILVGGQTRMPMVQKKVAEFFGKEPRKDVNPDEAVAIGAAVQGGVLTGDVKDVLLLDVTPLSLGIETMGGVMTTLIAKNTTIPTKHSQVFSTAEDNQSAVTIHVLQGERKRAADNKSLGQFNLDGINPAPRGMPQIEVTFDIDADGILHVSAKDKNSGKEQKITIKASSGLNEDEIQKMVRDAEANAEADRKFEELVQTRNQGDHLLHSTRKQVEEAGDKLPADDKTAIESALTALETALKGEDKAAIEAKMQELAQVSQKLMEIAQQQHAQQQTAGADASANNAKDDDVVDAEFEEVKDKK
# DnaJ, sequence (P08622 whole entry): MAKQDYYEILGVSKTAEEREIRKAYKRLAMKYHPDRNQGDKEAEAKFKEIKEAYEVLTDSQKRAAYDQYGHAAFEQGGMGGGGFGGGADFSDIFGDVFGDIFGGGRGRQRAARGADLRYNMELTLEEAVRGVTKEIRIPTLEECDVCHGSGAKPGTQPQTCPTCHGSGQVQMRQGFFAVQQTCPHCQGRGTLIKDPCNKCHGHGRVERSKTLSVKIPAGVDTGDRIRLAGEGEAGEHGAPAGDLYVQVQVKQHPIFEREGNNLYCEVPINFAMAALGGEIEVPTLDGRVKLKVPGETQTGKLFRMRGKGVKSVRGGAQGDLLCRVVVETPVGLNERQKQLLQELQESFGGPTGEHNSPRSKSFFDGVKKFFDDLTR
# Hsp40, sequence (P25685 whole entry): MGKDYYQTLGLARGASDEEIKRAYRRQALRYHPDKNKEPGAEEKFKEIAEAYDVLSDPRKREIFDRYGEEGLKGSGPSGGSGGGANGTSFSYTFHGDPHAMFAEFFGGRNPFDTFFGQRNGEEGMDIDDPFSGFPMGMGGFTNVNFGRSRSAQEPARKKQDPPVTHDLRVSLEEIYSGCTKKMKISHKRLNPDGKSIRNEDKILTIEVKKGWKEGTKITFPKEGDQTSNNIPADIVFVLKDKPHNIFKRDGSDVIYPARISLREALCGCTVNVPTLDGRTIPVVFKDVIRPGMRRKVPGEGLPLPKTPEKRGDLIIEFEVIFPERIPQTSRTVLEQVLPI
# Hsp70, sequence (P0DMV8 whole entry): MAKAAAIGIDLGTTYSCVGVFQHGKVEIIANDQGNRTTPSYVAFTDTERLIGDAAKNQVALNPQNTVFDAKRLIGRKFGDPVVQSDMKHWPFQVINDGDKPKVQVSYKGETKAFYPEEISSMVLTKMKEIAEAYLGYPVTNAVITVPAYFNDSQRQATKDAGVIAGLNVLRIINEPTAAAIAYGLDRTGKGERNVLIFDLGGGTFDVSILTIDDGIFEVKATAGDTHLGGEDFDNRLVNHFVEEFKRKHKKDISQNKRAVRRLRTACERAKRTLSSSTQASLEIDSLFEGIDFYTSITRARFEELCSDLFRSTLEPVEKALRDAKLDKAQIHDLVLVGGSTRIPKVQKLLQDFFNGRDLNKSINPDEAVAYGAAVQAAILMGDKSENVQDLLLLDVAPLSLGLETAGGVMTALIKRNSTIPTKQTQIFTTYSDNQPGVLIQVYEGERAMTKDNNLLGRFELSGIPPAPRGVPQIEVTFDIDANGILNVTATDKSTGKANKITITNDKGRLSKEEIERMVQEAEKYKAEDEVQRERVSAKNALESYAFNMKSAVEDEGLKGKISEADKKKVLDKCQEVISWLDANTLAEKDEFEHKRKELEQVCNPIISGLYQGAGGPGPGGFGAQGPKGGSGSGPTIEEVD
molecule,measurement,setting,value
DnaJ (from UniProt P08622 1-376) (natural protein),intersection force of R3-WT with DnaJ; without chaperone ∼6 pN,[1],4 pN
same,"percent of force-ramp events of R3-IVVI with hysteresis, with DnaJ; control ∼9%",[2],86%
DnaK (from UniProt P0A6Y8 1-638) (natural protein),intersection force of R3-WT with DnaK; without chaperone ∼6 pN,[1],4 pN
same,"unfolding force of R3-IVVI in the presence of DnaK, DnaJ and ADP (DnaKJ-ADP)",[3],6 pN
same,unfolding force of R3-IVVI with DnaK after addition of ATP (apo-DnaK: ∼6 pN),[3],7.5 pN
same,intersection force of R3-IVVI with DnaK-ADP complex (chevron plot),[4],7.1 pN
same,intersection force of R3-IVVI with DnaK-ATP (chevron plot),[4],7.6 pN
same,"percent of force-ramp events of R3-IVVI with hysteresis, with DnaK; control ∼9%",[2],91%
Hsp40 (from UniProt P25685 1-340) (natural protein),"intersection force of talin R3-IVVI (chevron plot), with Hsp40; control 9.8 pN",[5],7.8 pN
Hsp70 (from UniProt P0DMV8 1-641) (natural protein),"intersection force of talin R3-IVVI (chevron plot), with Hsp70; control 9.8 pN",[5],7.2 pN
"DsbA (oxidized) (enzyme, oxidized (0.3% H2O2 overnight)) AQYEDGKQYTTLEKPVAGAPQVLEFFSFFCPHCYQFEEVLHISDNVKKKLPEGVKMTKYHVNFMGGDLGKDLTQAWAVAMALGVEDKVTVPLFEGVQKTQTIRSASDIRDVFINAGIKGEEYDAAWNSFVVKSLVAQQEKAAADVQLRGVPAMFVNGKYQLNPQGMDTSNMDVFVQQYADTVKYLSEKK",intersection force of R3-WT with DsbA; without chaperone ∼6 pN,[1],10 pN

# Source: publication doi:10.1101/2021.04.27.441571
